{"source": "patent US20240262869A1", "key": {"ACE2-hFc (human) [1]": {"target": "ACE2-hFc (human) (UniProt Q9BYF1)", "sequence (Q9BYF1 18-740 limits assumed)": "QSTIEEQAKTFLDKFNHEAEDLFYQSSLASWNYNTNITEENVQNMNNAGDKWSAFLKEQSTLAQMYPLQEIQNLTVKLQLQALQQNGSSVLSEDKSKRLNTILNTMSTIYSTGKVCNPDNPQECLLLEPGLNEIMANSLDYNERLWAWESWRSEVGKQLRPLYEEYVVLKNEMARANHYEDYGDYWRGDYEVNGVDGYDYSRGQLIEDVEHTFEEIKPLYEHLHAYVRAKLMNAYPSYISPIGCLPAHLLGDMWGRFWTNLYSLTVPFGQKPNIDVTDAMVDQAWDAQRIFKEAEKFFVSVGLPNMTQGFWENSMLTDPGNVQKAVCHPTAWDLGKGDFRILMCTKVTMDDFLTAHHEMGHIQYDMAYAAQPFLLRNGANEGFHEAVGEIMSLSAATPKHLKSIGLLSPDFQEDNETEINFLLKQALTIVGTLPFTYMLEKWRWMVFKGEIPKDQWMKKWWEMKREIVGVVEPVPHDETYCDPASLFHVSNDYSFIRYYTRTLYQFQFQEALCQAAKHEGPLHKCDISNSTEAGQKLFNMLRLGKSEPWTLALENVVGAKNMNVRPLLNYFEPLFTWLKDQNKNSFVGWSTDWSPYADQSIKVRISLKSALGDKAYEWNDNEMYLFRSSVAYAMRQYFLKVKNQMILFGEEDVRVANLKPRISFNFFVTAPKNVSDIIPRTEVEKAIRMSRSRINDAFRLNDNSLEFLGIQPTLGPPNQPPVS"}, "[2]": {"target": "neutralizing antibody CR3022"}, "[3]": {"target": "neutralizing antibody CR3022", "remark": "listed apart in the source"}, "[4]": {"target": "neutralizing antibody CR3022", "remark": "listed apart in the source"}, "[5]": {"target": "neutralizing antibody CR3022", "test": "SPR, CR3022 captured on Protein G, tagless pInCV02R as analyte (FIG. 11D)"}, "[6]": {"target": "neutralizing antibody CR3022", "remark": "listed apart in the source"}, "[7]": {"target": "neutralizing antibody CR3022", "test": "SPR (ProteOn XPR36), CR3022 captured on Protein G"}, "ACE2-hFc (human) [8]": {"target": "ACE2-hFc (human) (UniProt Q9BYF1)", "remark": "listed apart in the source"}, "ACE2-hFc (human) [9]": {"target": "ACE2-hFc (human) (UniProt Q9BYF1)", "remark": "listed apart in the source"}, "ACE2-hFc (human) [10]": {"target": "ACE2-hFc (human) (UniProt Q9BYF1)", "remark": "listed apart in the source"}, "[11]": {"target": "neutralizing antibody CR3022", "test": "SPR, immobilized CR3022"}}, "note": "Values joined by “and” are separate entries in the source; they are usually repeats but may differ in a detail not shown here. Identical values can stand only once. Like-named read-outs stand apart in the source and are kept apart here."}
{"substance": "mInCV29R (SARS CoV-2 RBD with GlyIZ at C-terminal and EIS at the N-terminal) (ligand; other documents disagree on this pair)", "values": [{"measurement": "Kd", "setting": "ACE2-hFc (human) [1]", "value": 3, "unit": "nM"}, {"measurement": "koff", "setting": "ACE2-hFc (human) [1]", "value": 0.0004, "unit": "s⁻¹"}, {"measurement": "kon", "setting": "ACE2-hFc (human) [1]", "value": 130000, "unit": "M⁻¹ s⁻¹"}]}
{"substance": "mInCV26R (SARS CoV-2 RBD with hCMP at the C-terminal and EIS at the N-terminal) (ligand; other documents disagree on this pair)", "values": [{"measurement": "kon", "setting": "ACE2-hFc (human) [1]", "value": 360000, "unit": "M⁻¹ s⁻¹"}]}
{"substance": "mInCV21R (SARS CoV-2 hCMP-RBD) having EIS at the N-terminal (ligand)", "values": [{"measurement": "Kd", "setting": "[2]", "value": "< 1", "unit": "nM"}, {"measurement": "kon", "setting": "[3]", "value": 310000, "unit": "M⁻¹ s⁻¹"}]}
{"substance": "pInCV02R (SARS CoV-2 RBD N-1 (332-532)) (from UniProt P0DTC2 332-532) (ligand)", "values": [{"measurement": "Kd", "setting": "[4]", "value": 29.5, "unit": "nM"}, {"measurement": "Kd", "setting": "[5]", "value": 30, "unit": "nM"}]}
{"substance": "MsDPS2-SpyTag-mRBD-SpyCatcher conjugate", "values": [{"measurement": "kon", "setting": "[6]", "value": "> 1e+06", "unit": "M⁻¹ s⁻¹"}, {"measurement": "kon", "setting": "[3]", "value": "4.2e+06", "unit": "M⁻¹ s⁻¹"}]}
{"substance": "mInCV01R (SARS CoV-2 RBD) having EIS at the N-terminal (from UniProt P0DTC2 331-532) (ligand)", "values": [{"measurement": "Kd", "setting": "[7]", "value": 1.3, "unit": "nM"}]}
{"substance": "mInCV21R (SARS CoV-2 hCMP-RBD) having EIS at the N-terminal (ligand; other documents disagree on this pair)", "values": [{"measurement": "Kd", "setting": "ACE2-hFc (human) [8]", "value": "< 1", "unit": "nM"}, {"measurement": "Kd", "setting": "ACE2-hFc (human) [9]", "value": 0.21, "unit": "nM"}, {"measurement": "koff", "setting": "ACE2-hFc (human) [9]", "value": "8.2e-05", "unit": "s⁻¹"}, {"measurement": "kon", "setting": "ACE2-hFc (human) [9]", "value": 400000, "unit": "M⁻¹ s⁻¹"}, {"measurement": "kon", "setting": "ACE2-hFc (human) [1]", "value": 200000, "unit": "M⁻¹ s⁻¹"}]}
{"substance": "MsDPS2-SpyTag-mRBD-SpyCatcher conjugate (other; other documents disagree on this pair)", "values": [{"measurement": "kon", "setting": "ACE2-hFc (human) [10]", "value": "> 1e+06", "unit": "M⁻¹ s⁻¹"}, {"measurement": "kon", "setting": "ACE2-hFc (human) [1]", "value": "2.3e+06", "unit": "M⁻¹ s⁻¹"}]}
{"substance": "mInCV29R (SARS CoV-2 RBD with GlyIZ at C-terminal and EIS at the N-terminal) (ligand)", "values": [{"measurement": "Kd", "setting": "[3]", "value": 4.8, "unit": "nM"}, {"measurement": "koff", "setting": "[3]", "value": 0.00097, "unit": "s⁻¹"}, {"measurement": "kon", "setting": "[3]", "value": 200000, "unit": "M⁻¹ s⁻¹"}, {"measurement": "Kd", "setting": "[11]", "value": "3 nM and 5 nM"}]}
{"substance": "mInCV26R (SARS CoV-2 RBD with hCMP at the C-terminal and EIS at the N-terminal) (ligand)", "values": [{"measurement": "kon", "setting": "[3]", "value": 480000, "unit": "M⁻¹ s⁻¹"}]}
